Assay results from FireProtDB (doi:10.1111/j.1399-3011.1991.tb01525.x).

Details: Aspergillus oryzae (strain ATCC 42149 / RIB 40), Thermal, DSC, glycine 0.05 M, reversible: yes, whole UniProt chain shown

B1: Guanyl-specific ribonuclease T1 wild type, P00651 (protein)
chain: MMYSKLLTLTTLLLPTALALPSLVERACDYTCGSNCYSSSDVSTAQAAGYQLHEDGETVGSNSYPHKYNNYEGFDFSVSSPYYEWPILSSGDVYSGGSPGADRVVFNENNQLAGVITHTGASGNNFVECT
In the case of B1, the Tm (pH 2) is reported as 39.2 °C, the “unfolding enthalpy (calorimetric)” value (pH 2) is reported as 82 kcal/mol and the Tm (pH 2.5) is reported as 45.6 °C. For the same protein, the “unfolding enthalpy (calorimetric)” value (pH 2.5) was 89.4 kcal/mol, the “heat capacity change of unfolding” value (pH 3, 40 °C) was 1.19 kcal/mol/K and the unfolding free energy (pH 3, 40 °C) was 2.94 kcal/mol. The Tm (pH 3) was 50.5 °C, the “unfolding enthalpy (calorimetric)” value (pH 3) was 97.3 kcal/mol and the Tm (pH 4) was 63.3 °C. For the same protein, the “unfolding enthalpy (calorimetric)” value (pH 4) was 110 kcal/mol.
